± gives the standard error. Fewer inactive variants are shown than the library holds.
B1: glmS ribozyme (parent)
chain: AUAAAAGCGCCAGAACUACAGAAAUGUAGUUGACGAGGAGGAGGUUUAUCGAAUUUUCGGCGGAUGCCUCCAAA

How the values were obtained:
Conditions in all cases: with glucosamine-6-phosphate
[1] = variants of: B1; assay: self-cleavage kobs at 40 uM GlcN6P; higher = faster cleavage; RNA array
In short: (§1)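 Sequenced MiSeq chips were the platform: E. coli RNA polymerase transcribed barcoded ribozyme variants on them in situ, and a hybridised Cy3 probe tracked these at 37 °C. After glucosamine-6-phosphate (40 μM to 10 mM) in HEPES/KCl/Mg(OAc)2 buffer was flowed in, tiles were imaged over ~14 h. Signals normalised to baseline and to non-cleaving reference variants were reduced to per-tile medians and fit to one- or two-exponential decays to obtain kobs. kcat and KM were derived through weighted Michaelis–Menten fits across concentrations.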

[2] = variants of: B1; assay: self-cleavage kobs at 160 uM GlcN6P; higher = faster cleavage; RNA array
In short: as §1

[3] = variants of: B1; assay: self-cleavage kobs at 640 uM GlcN6P; higher = faster cleavage; RNA array
In short: as §1

[4] = variants of: B1; assay: self-cleavage kobs at 2500 uM GlcN6P; higher = faster cleavage; RNA array
In short: as §1

[5] = variants of: B1; assay: self-cleavage kobs at 10000 uM GlcN6P; higher = faster cleavage; RNA array
In short: as §1

Variant | self-cleavage kobs at 40 uM GlcN6P [1] [s⁻¹] | self-cleavage kobs at 160 uM GlcN6P [2] [s⁻¹] | self-cleavage kobs at 640 uM GlcN6P [3] [s⁻¹] | self-cleavage kobs at 2500 uM GlcN6P [4] [s⁻¹] | self-cleavage kobs at 10000 uM GlcN6P [5] [s⁻¹]
AUAAAAUCGCCAGAACUACAGAAAUGUAGUUGACGAGGAGGAGGUUUUUCGAAUUUUCGGCGGAUGCCUCCAAA [G7U A48U] | < 1e-05 | < 1e-05 | < 1e-05 | < 1e-05 | < 1e-05
AUAAAAUGGCCAGAACUACAGAAAUGUAGUUGACGAGGAGGAGGUUGAUCGAAUUUUUGGGGGAUGCCGCCAAA [G7U C8G U47G C58U C61G U69G] | 0.000436 ± 0.00012 |  |  |  | 0.000464 ± 0.00012
AUAAAAUCGCCAGAACUACAGAAAUGUAGUUGACGCGGAGGAGGUUUAUCGAAUUUUCUGCGGAUGCCUCCAAA [G7U A36C G59U] | < 1e-05 |  |  |  | < 1e-05
AUAAAAUCGCCAGAACUACAGAAAUGUAGUUGACGAGGAGGAGGUUUAUCGGAUUUUCGGCGGAUGCGUCCAAA [G7U A52G C68G] | 0.000127 ± 4.6e-05 |  |  |  | 0.000484 ± 0.00022
AUAAAAUCGCCAGAACUACAGAAAUGUAGUUGACGAGGAGGAGGUUUAUCGUAUUUUCGGCGGAUGCCUCCAAA [G7U A52U] | < 1e-05 |  | < 1e-05 | < 1e-05 | < 1e-05
AUAAAAUCGCCAGAAUUACAGAAAUGUACUUGACGAGGAGGAGGUUUAUCGAAAUUUCGGCGGAUGCCUCCAAA [G7U C16U G29C U54A] | < 1e-05 |  |  | < 1e-05 | 
AUAAAAUCGCCAGAACUACAGAAAUGUAGUUGUCGAGGAGGAGGUUUAUCGAAUUUUCGGCGGGUGCCUGCAAA [G7U A33U A64G C70G] | < 1e-05 |  |  |  | 
AUAAAAUCGCCAGAACUACAGAAAUGUAGUUGACGUGGACGAGGUUUAUCGAAUUUUCGGCGGAUGCCUCCAAA [G7U A36U G40C] | < 1e-05 |  |  | < 1e-05 | < 1e-05
AUAAAAUCGCCGGAACUACAGAAAUGUAGUUGACGAGGAGGAGGUUUAUCGAAUUUUCGGCGGAUGCCUCCAAA [G7U A12G] | < 1e-05 | < 1e-05 | < 1e-05 |  | < 1e-05
AUAAAAUCGACAGAUCUACAGAAAUGUAGUUGACGAGGAGGAGGUUUAUCGAAUUUUCGGCGGAUGCCUCCAAA [G7U C10A A15U] | < 1e-05 |  | < 1e-05 | < 1e-05 | 
AUAAAAUCGCCAGAACUACAGAAAUGUAGUUGGCGAGGAGGAGGUUUAUCGAAUAUUCGGCGGAUGCCUCCAAA [G7U A33G U55A] | < 1e-05 |  |  |  | < 1e-05
AUAAAAUCGCCAGAACUACAGAAAUGUAGUUGACGAGGAGGGGGUUUAUCGAAUUUUCGGCGGAUGCCUCCAAA [G7U A42G] | < 1e-05 | < 1e-05 | < 1e-05 | < 1e-05 | < 1e-05
AUAAAAUAGCCAGAACUACAGAAAUGUAGUUGUCGAGGAGGAAGUUUAUCGAAUAUUCGGCGGAUGCCUCCAAA [G7U C8A A33U G43A U55A] | < 1e-05 |  | < 1e-05 | < 1e-05 | < 1e-05
AUAAAAUCGCCAGAACUACAGAAAUGUAGUUGACGAGGCGGAGGUUUAUCGAAUUUUCGGCGGAUGCCUCCAAA [G7U A39C] | < 1e-05 | < 1e-05 | < 1e-05 |  | < 1e-05
AUAAAAUCGCCAGAACUACAGAAAUGUAGUUGACGAGGGGGAGGUUUAUCGAAUUUUCGGCGGAUGCCUCCAAA [G7U A39G] | < 1e-05 | < 1e-05 | < 1e-05 | < 1e-05 | < 1e-05
AUAAAAUCGCCUGAACUACAGAAAUGUAGUUGACGAGGAGGAGGUUUAUCGGAUGUUCGGCGGAUGCCUCCAAA [G7U A12U A52G U55G] | < 1e-05 |  |  |  | < 1e-05
AUAAAACCGCCAGAACUACAGAAAUGUAGUUGACGAGGAGGAGGUUUAUCGAAUUGUCGGCGGAUGCCUCCAAA [G7C U56G] | < 1e-05 | < 1e-05 | < 1e-05 | < 1e-05 | < 1e-05
AUAAAACCGCCAGAACUACAGAAAUGUAGUUGACGAGGAGGAGGUUUAUCGAAUUUUCGGCGGAGGCCUCCAAA [G7C U65G] | < 1e-05 |  | < 1e-05 | < 1e-05 | < 1e-05
AUAAAAUCGCCAGAACUACAGAAAUGUAGUUGACGAGGAGGUGCUUUAUCGAAUUUUCGGCGGAUGCCUCCAAA [G7U A42U G44C] | < 1e-05 |  |  |  | < 1e-05
AUAAAACCGCCAGAACUACAGAAAUGUAGUUGACGAGGAGGAGGUUUAUCGAAUAUUCGGCGGAUGCCUCCAAA [G7C U55A] | < 1e-05 | < 1e-05 | < 1e-05 | < 1e-05 | 
AUAAAACCGCCAGAACUACAGAAAUGUAGUUGACGAGGAGGAGGUUUAUCGAAUGUUCGGCGGAUGCCUCCAAA [G7C U55G] | < 1e-05 |  |  |  | < 1e-05
AUAAAAUCGCCAGAACUACAGAAAUGUAGUUGACGAGGAGGAGGUUUUUCGAAUUUUCGCCGGAUGCCUCCAAA [G7U A48U G60C] | < 1e-05 |  |  |  | 
AUAAAAUCGCCAGAACUAAAGAAAUGUAGUUGACGAGGAGGAGGUUUAUCGAAUUUUCGGCGGAUGCCUCCAAA [G7U C19A] | < 1e-05 | < 1e-05 | < 1e-05 | < 1e-05 | 
AUAAAAUCGCCAGAACUACAGAAAUGUAGUUGAUGAGGAGGAGGUUUAUCGAAUUUUCGGCGGAUGCCUCCAAA [G7U C34U] | < 1e-05 |  |  | < 1e-05 | 

Source: the supplement of paper PMC7125110
